Measurements taken from patent publication US20060251650A1 (CHILDREN S MEDICAL CENTER, published 2006).
Values belong to the binder of their own block, whether it stands above or below them.

Key:
KDR = biological target: T1, KDR (UniProt P35968 20-1356, limits assumed); assay: 125I-collapsin-1 binding to PAE/KDR cells
T1 construct: whole, on cells; also called KDR/Flk-1

[1] = biological target: T2, Human VEGF165R/NP-1 (neuropilin-1) (human, UniProt O14786 22-923); assay: cell-based or functional assay
[2] = biological target: T3, Rat neuropilin-1 on AT3.1 Dunning rat prostate carcinoma cells (rat, UniProt Q9QWJ9 22-922); assay: 125I-VEGF165 cross-linking to AT3.1 rat prostate carcinoma cells
T3 construct: whole, on cells; also called VEGF165R/NP-1 (AT3.1 cells)

[3] = biological target: T2, Human VEGF165R/NP-1 (neuropilin-1); assay: Scatchard analysis (LIGAND program) of 125I-VEGF165 binding to PAE/NP-1 cells
Description: FIGS. 7A and 7B show a Scatchard Analysis of VEGF₁₆₅ binding to VEGF₁₆₅R/NP-1. […] Increasing amounts of ¹²⁵I-VEGF₁₆₅ (0.1-50 ng ml) were added to subconfluent cultures of PAE cells transfected with human VEGF₁₆₅R/NP-1 cDNA (PAE/NP-1 cells) in 48 well dishes. Non-specific binding was determined by competition with a 200-fold excess of unlabeled VEGF₁₆₅. After binding, the cells were washed, lysed and the cell-associated radioactivity was determined using a counter.
The specific activity ranged from 40,000-100,000 cpm/ng protein. […] VEGF binding was quantitated by measuring the cell-associated radioactivity in a y-counter (Beckman, Gamma 5500). The counts represent the average of three wells. All experiments were repeated at least three times and similar results where obtained.

[4] = biological target: T4, Human NP-2 (neuropilin-2) (human, UniProt O60462 21-931); assay: expression cloning: COS-7 cells transfected with single cDNA clones, screened for 125I-VEGF165 binding; seven positive clones, of which this one is NP-2
T4 construct: The open reading frame has 931 amino acids
T4 sequence: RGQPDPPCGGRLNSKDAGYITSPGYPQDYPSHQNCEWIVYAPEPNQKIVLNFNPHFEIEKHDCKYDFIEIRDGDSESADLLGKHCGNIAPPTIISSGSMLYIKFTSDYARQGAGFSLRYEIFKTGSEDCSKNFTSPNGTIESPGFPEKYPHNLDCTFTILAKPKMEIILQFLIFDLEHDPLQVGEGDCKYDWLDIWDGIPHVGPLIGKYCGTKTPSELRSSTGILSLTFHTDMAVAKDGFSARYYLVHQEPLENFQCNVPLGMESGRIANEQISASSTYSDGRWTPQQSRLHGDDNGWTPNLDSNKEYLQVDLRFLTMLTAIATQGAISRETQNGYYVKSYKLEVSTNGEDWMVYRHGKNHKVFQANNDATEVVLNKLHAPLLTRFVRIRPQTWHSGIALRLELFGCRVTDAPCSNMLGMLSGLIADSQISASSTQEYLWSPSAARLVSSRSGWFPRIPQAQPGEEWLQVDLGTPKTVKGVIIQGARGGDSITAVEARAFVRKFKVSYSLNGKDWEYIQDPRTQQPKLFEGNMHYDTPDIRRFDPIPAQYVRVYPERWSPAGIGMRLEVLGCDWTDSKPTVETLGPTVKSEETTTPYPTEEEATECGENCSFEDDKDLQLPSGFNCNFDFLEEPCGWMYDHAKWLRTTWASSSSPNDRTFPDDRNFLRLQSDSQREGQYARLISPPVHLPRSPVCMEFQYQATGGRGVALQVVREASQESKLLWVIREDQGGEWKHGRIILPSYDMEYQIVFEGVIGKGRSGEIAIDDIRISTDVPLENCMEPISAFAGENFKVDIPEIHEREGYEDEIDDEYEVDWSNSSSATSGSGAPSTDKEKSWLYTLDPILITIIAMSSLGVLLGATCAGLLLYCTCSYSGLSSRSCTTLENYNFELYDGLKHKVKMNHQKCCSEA
Description: Seven positive DNA pools were identified and DNA from one of the positive pools was used to transform E. coli. The E. coli were sub-divided into 50 separate pools and plated onto 50 LB ampicillin dishes, with each pool representing approximately 100 clones. DNA made from these pools was transfected into COS-7 cells which were screened for ¹²⁵I-VEGF₁₆₅ binding as described above. […] Each pool was plated onto separate LB ampicillin dishes and DNA was prepared from 96 individual colonies and screened in a 96-well two dimensional grid for ¹²⁵I-VEGF₁₆₅ binding to transfected COS-7 cells as described above. […] The seven positive plasmid clones where amplified and their DNA was analyzed by restriction enzyme digestion. […] One clone from each group was submitted for automated DNA sequencing.
E. coli transformed with the plasmid library were divided into pools. The DNA prepared from each pool were transfected into COS-7 cells in separate wells and individual cells were screened for the ability to bind ¹²⁵I-VEGF₁₆₅ as detected by autoradiography of monolayers overlayed with photographic emulsion (FIG. 2A).

[5] = biological target: T2, Human VEGF165R/NP-1 (neuropilin-1); assay: 125I-VEGF121 binding and chemical cross-linking to PAE/NP-1 cells, SDS-PAGE and autoradiography, 1 µg/ml heparin
From the text: The cells were lysed and proteins were resolved by 6% SDS-PAGE.

T1 sequence (P35968 20-1356 limits assumed): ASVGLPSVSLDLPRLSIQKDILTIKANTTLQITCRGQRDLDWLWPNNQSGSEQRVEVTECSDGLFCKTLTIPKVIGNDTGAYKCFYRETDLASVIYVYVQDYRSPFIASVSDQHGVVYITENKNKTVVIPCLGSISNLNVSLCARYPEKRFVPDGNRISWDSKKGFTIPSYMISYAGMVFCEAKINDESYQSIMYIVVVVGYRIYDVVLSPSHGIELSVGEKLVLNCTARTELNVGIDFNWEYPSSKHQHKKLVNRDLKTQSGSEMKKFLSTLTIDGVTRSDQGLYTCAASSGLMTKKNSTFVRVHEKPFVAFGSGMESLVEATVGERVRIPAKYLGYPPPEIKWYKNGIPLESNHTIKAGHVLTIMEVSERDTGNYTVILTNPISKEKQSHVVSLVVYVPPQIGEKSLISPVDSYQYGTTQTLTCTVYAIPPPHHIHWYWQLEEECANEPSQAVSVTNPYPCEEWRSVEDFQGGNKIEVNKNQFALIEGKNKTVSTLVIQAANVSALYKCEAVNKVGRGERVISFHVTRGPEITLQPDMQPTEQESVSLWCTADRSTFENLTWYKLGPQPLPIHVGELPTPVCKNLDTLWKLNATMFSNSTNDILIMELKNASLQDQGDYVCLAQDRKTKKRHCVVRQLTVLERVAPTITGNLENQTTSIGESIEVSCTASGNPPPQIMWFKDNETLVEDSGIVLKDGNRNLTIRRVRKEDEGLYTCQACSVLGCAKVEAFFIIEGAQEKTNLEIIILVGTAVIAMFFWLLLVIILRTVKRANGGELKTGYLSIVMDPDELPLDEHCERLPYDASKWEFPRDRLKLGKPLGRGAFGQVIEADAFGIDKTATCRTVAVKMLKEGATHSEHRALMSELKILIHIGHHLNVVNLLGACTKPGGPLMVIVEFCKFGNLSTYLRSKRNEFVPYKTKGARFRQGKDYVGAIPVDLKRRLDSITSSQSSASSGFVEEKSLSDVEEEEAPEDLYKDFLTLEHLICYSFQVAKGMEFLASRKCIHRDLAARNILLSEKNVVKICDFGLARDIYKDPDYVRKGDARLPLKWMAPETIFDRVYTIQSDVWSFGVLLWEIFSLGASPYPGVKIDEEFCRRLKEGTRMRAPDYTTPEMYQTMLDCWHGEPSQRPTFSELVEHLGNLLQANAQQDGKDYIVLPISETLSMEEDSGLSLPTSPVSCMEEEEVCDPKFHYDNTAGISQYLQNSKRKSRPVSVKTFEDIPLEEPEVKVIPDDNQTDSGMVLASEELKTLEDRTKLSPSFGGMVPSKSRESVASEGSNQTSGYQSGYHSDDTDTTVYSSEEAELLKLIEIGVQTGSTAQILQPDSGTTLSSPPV

binding result (KDR): no binding
B1: Recombinant chick collapsin-1 (semaphorin III) (ligand, UniProt Q90607 23-772, looked up)
chain: QHVKNNVPRLKLSYKEMLESNNIVNFNGLANSSSYHTFLLDEERSRLYVGAKDHIFSFNLVNIKEYQKIVWPVSHSRRDECKWAGKDILRECANFIKVLKTYNQTHLYACGTGAFHPMCTYIEVGSHPEDNIFRMEDSHFENGRGKSPYDPKLLTASLLVDGELYSGTAADFMGRDFAIFRTLGHHHPIRTEQHDSRWLNDPRFISAHLIPESDNPEDDKIYFFFRENAIDGEHTGKATHARIGQICKNDFGGHRSLVNKWTTFLKARLICSVPGPNGIDTHFDELQDVFLMNSKDPKNPIVYGVFTTSSNIFKGSAVCMYSMTDVRRVFLGPYAHRDGPNYQWVPYQGRVPYPRPGTCPSKTFGGFDSTKDLPDEVITFARSHPAMYNPVFPINSRPIMIKTDVDYQFTQIVVDRVDAEDGQYDVMFIGTDIGTVLKVVSIPKETWHELEEVLLEEMTVFREPTVISAMKISTKQQQLYIGSATGVSQLPLHRCDVYGKACAECCLARDPYCAWDGSSCSRYFPTAKRRTRRQDIRNGDPLTHCSDLQHHDNPSGQTLEEKIIYGVENSSTFLECSPKSQRAIVYWQFQKQNDDHKVEIKVDDRMIRTEQGLLLRSLQRRDSGIYFCHAVEHGFIQTLLKVTLEVIDTDHLEELLHKEEDADASKTKDATNSMTPSQKIWYRDFMQLINHPNLNTMDEFCEQVWKRDRKQRRQRPANAQVNTNKWKHLQENKKGRNRRTHEFERAPRSV
modifications: 125I-labelled in the binding studies

stimulation of 231 breast carcinoma cell motility, Boyden chamber, VEGF165 50 ng/ml [1]: 2 fold | binding result [2]: binds | Kd [3]: ~320 pM | binding result [4]: binds
B2: Human recombinant VEGF165 (ligand, UniProt P15692-4 27-191, looked up)
chain: APMAEGGGQNHHEVVKFMDVYQRSYCHPIETLVDIFQEYPDEIEYIFKPSCVPLMRCGGCCNDEGLECVPTEESNITMQIMRIKPHQGQHIGEMSFLQHNKCECRPKKDRARQENPCGPCSERRKHLFVQDPQTCKCSCKNTDSRCKARQLELNERTCRCDKPRR
modifications: radio-iodinated (125I) using IODO-BEADS in the binding and cross-linking experiments
notes: mature

binding result [5]: no binding (tested: 10 ng/ml)
B3: Human recombinant VEGF121 (ligand, UniProt P15692-9 27-147, looked up)
chain: APMAEGGGQNHHEVVKFMDVYQRSYCHPIETLVDIFQEYPDEIEYIFKPSCVPLMRCGGCCNDEGLECVPTEESNITMQIMRIKPHQGQHIGEMSFLQHNKCECRPKKDRARQEKCDKPRR
modifications: radio-iodinated (125I) using IODO-BEADS in the cross-linking experiments
notes: mature
